Results as given in paper PMC9025068, “DNA-Binding Properties of a Novel Crenarchaeal Chromatin-Organizing Protein in Sulfolobus acidocaldarius” (Biomolecules, 2022).

What was measured:
[1] = test system: Sul12a (Sulfolobus acidocaldarius); experiment: EMSA; conditions: KDapp, salmon sperm DNA 25 ug/mL, 20 mM Tris-HCl pH 8.0, 1 mM MgCl2, 0.1 mM DTT, 12.5% glycerol, 50 mM NaCl, 0.4 mM EDTA, 37 C 20 min, 0.1 nM 32P-DNA with 25 ug/mL salmon sperm DNA …
[2] = target: the molecule itself; experiment: SDS-PAGE with western blot; 100 and 250 ug purified Sul12a separated by SDS-PAGE (4-12%), blotted on PVDF, probed with HRP-conjugated anti-polyHistidine antibodies

argO promoter region (F3)
Kd ([1]; F1 + F3 mixture): 3700 nM

carAB promoter region (F2)
Kd ([1]; F1 + F2 mixture): 1200 nM

B1: Sul12a (natural protein, Sulfolobus acidocaldarius, UniProt Q4JA12 1-107, looked up)
chain: MELTPRLQDIISILKEKGGSVNIRDLALQLKISPKTAKGYARELYRLGYIEMDENENMILKRENPENITDLKKTVETHTAEIEALKKEVEFLKEELSRFRGTKKVKV
notes: Sul12a of Sulfolobus acidocaldarius, encoded by the 324-bp gene Saci_1012; 107 amino acids, native MW 12.4 kDa (recombinant His-tagged monomer 14.3 kDa); the Saci_1012 coding region was amplified from genomic DNA and cloned in pET-45b(+); The preparation also held lower-MW species without tag (contaminants or degradation products); also called Saci_1012; not shown: His tag, N-terminal, kept
stoichiometry N [2]: 2
